Experimental findings from the supplement of paper PMC9112550, “Optimization of the antimicrobial peptide Bac7 by deep mutational scanning” (BMC Biology, 2022) are described below.

In the data set the test system is Escherichia coli TOP10. Briefly: shrunken log2 fold change of peptide-encoding DNA abundance (4.5 h post-induction vs induction); higher = less antimicrobial activity (less host growth inhibition). Particulars: time post-induction: 4.5 h; library: site-saturation at positions 5, 18, 19, 20.
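Note: peptides expressed intracellularly from a pBAD plasmid library in pooled LB shake-flask culture, induced with 0.3% L-arabinose, DNA abundance read by NGS, three biological replicates, DESeq2 with apeglm shrinkage.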

Take RRIRERPPRLPRPRPRPCACPRP: the “shrunken log2 fold change” value is -0.78. As to RRIRWRPPRLPRPRPRPEGIPRP, the “shrunken log2 fold change” value is -0.00186. As for RRIRRRPPRLPRPRPRPYYPPRP, the “shrunken log2 fold change” value was -0.468.

In the case of RRIRMRPPRLPRPRPRPLPEPRP, the “shrunken log2 fold change” value is 1.24. For the sequence RRIRCRPPRLPRPRPRPDVYPRP, the “shrunken log2 fold change” value turned out to be 0.0165. Take RRIRWRPPRLPRPRPRPKTKPRP: the “shrunken log2 fold change” value was 0.101. In the case of RRIRHRPPRLPRPRPRPIFCPRP it was -0.184; in that of RRIRRRPPRLPRPRPRPWDRPRP, 0.26. Next, RRIRDRPPRLPRPRPRPAASPRP: 0.049. Consider RRIRRRPPRLPRPRPRPYARPRP, for which the “shrunken log2 fold change” value turned out to be 0.0203. For RRIRQRPPRLPRPRPRPHDDPRP, the “shrunken log2 fold change” value is 0.043. RRIRKRPPRLPRPRPRPIWWPRP: the “shrunken log2 fold change” value is 0.0844. In the case of RRIRCRPPRLPRPRPRPGVYPRP, the “shrunken log2 fold change” value is -0.0723.

As to RRIRQRPPRLPRPRPRPVYQPRP, the “shrunken log2 fold change” value was -0.022. Take RRIRGRPPRLPRPRPRPPDNPRP: the “shrunken log2 fold change” value is 0.795.

For the sequence RRIRTRPPRLPRPRPRPESRPRP, the “shrunken log2 fold change” value is -0.0705. In the case of RRIRDRPPRLPRPRPRPEINPRP, the “shrunken log2 fold change” value was found to be 0.648. Next, RRIRLRPPRLPRPRPRPPQFPRP: -0.165; RRIRRRPPRLPRPRPRPFPCPRP: 0.038; RRIRIRPPRLPRPRPRPTPSPRP: 0.0658. In the case of RRIRRRPPRLPRPRPRPCTAPRP it was 0.866; in that of RRIRVRPPRLPRPRPRPTHGPRP, -0.235; in that of RRIRQRPPRLPRPRPRPVPCPRP, 0.0476. On to RRIRRRPPRLPRPRPRPNYGPRP, for which the “shrunken log2 fold change” value was determined as 0.00704. On to RRIRGRPPRLPRPRPRPGAWPRP, for which the “shrunken log2 fold change” value is 1.56. Regarding RRIRFRPPRLPRPRPRPGWYPRP, the “shrunken log2 fold change” value is -0.463.

For the sequence RRIRKRPPRLPRPRPRPRFTPRP, the “shrunken log2 fold change” value amounted to 0.158. For the sequence RRIRKRPPRLPRPRPRPIDTPRP, the “shrunken log2 fold change” value was -0.0729. Take RRIRIRPPRLPRPRPRPIEVPRP: the “shrunken log2 fold change” value is -0.0018. Next, RRIRSRPPRLPRPRPRPPHHPRP: -0.0759; RRIRQRPPRLPRPRPRPTLEPRP: 0.0818; RRIRMRPPRLPRPRPRPQKLPRP: 0.0146. In the case of RRIRNRPPRLPRPRPRPPQGPRP, the “shrunken log2 fold change” value amounted to 0.192. As for RRIRVRPPRLPRPRPRPHMNPRP, the “shrunken log2 fold change” value was -0.499. Take RRIRKRPPRLPRPRPRPKCPPRP: the “shrunken log2 fold change” value was determined as 0.165. Consider RRIRFRPPRLPRPRPRPYHVPRP, for which the “shrunken log2 fold change” value is 0.0272.

As for RRIRERPPRLPRPRPRPKCMPRP, the “shrunken log2 fold change” value is -0.0455. Next, RRIRSRPPRLPRPRPRPKPRPRP: 0.594; RRIRCRPPRLPRPRPRPSSQPRP: -0.377; RRIRKRPPRLPRPRPRPIIFPRP: -0.147. With RRIRHRPPRLPRPRPRPIIYPRP, the “shrunken log2 fold change” value was -0.295.

Turning to RRIRQRPPRLPRPRPRPQLFPRP, the “shrunken log2 fold change” value was determined as 0.0846. For the sequence RRIRLRPPRLPRPRPRPHAFPRP, the “shrunken log2 fold change” value is -0.208.

As to RRIRARPPRLPRPRPRPQANPRP, the “shrunken log2 fold change” value worked out at 0.304. In the case of RRIRTRPPRLPRPRPRPHQWPRP it was -0.196. RRIRVRPPRLPRPRPRPTKGPRP: the “shrunken log2 fold change” value came out at 0.118. For the sequence RRIRKRPPRLPRPRPRPLPPPRP, the “shrunken log2 fold change” value was found to be 1.01. As for RRIRGRPPRLPRPRPRPPAIPRP, the “shrunken log2 fold change” value was determined as 0.859.

In the case of RRIRSRPPRLPRPRPRPTMQPRP, the “shrunken log2 fold change” value is -0.106. Turning to RRIRVRPPRLPRPRPRPGPPPRP, the “shrunken log2 fold change” value came out at 0.564.

On to RRIRQRPPRLPRPRPRPHRNPRP, for which the “shrunken log2 fold change” value amounted to 0.116. Next, RRIRGRPPRLPRPRPRPFMMPRP: -0.467; RRIRHRPPRLPRPRPRPARMPRP: -0.0768.

Consider RRIRVRPPRLPRPRPRPYWFPRP, for which the “shrunken log2 fold change” value is -0.396. Take RRIRTRPPRLPRPRPRPIAWPRP: the “shrunken log2 fold change” value was -0.104. Next, RRIRVRPPRLPRPRPRPEPYPRP: -0.2. RRIRGRPPRLPRPRPRPEWHPRP: the “shrunken log2 fold change” value came out at 0.386. Take RRIRMRPPRLPRPRPRPKFTPRP: the “shrunken log2 fold change” value worked out at 0.313. Take RRIRMRPPRLPRPRPRPTPHPRP: the “shrunken log2 fold change” value came out at 1.13. For RRIRMRPPRLPRPRPRPALEPRP, the “shrunken log2 fold change” value was found to be 0.347. For RRIRQRPPRLPRPRPRPMIVPRP, the “shrunken log2 fold change” value stood at 0.000655. For RRIRQRPPRLPRPRPRPQQDPRP, the “shrunken log2 fold change” value was determined as 0.206. RRIRGRPPRLPRPRPRPFEQPRP: the “shrunken log2 fold change” value came to 0.618. In the case of RRIRCRPPRLPRPRPRPMNHPRP it was -0.658; in that of RRIRKRPPRLPRPRPRPVWCPRP, -0.0673. In the case of RRIRPRPPRLPRPRPRPIQMPRP, the “shrunken log2 fold change” value was -0.166. In the case of RRIRFRPPRLPRPRPRPSMGPRP, the “shrunken log2 fold change” value was -0.648. Consider RRIRDRPPRLPRPRPRPKRCPRP, for which the “shrunken log2 fold change” value was 0.0311. On to RRIRFRPPRLPRPRPRPKEGPRP, for which the “shrunken log2 fold change” value was determined as 0.0546. Consider RRIRMRPPRLPRPRPRPQMVPRP, for which the “shrunken log2 fold change” value was -0.243. In the case of RRIRDRPPRLPRPRPRPHNHPRP it was -0.612; in that of RRIRRRPPRLPRPRPRPPELPRP, -0.0467; in that of RRIRSRPPRLPRPRPRPKDSPRP, 0.1. As for RRIRRRPPRLPRPRPRPSSVPRP, the “shrunken log2 fold change” value is 0.131. Next, RRIRTRPPRLPRPRPRPDVLPRP: -0.208; RRIRARPPRLPRPRPRPCKEPRP: 0.000506. For the sequence RRIRLRPPRLPRPRPRPATDPRP, the “shrunken log2 fold change” value stood at 0.142. Consider RRIRPRPPRLPRPRPRPCIVPRP, for which the “shrunken log2 fold change” value was -0.199.

Consider RRIRLRPPRLPRPRPRPDPWPRP, for which the “shrunken log2 fold change” value was 0.0779. As for RRIRMRPPRLPRPRPRPDSFPRP, the “shrunken log2 fold change” value was -0.0586. With RRIRKRPPRLPRPRPRPMAAPRP, the “shrunken log2 fold change” value was 0.751. In the case of RRIRDRPPRLPRPRPRPVKGPRP it was 0.0617.

With RRIRVRPPRLPRPRPRPIRPPRP, the “shrunken log2 fold change” value is -0.0154. Regarding RRIRFRPPRLPRPRPRPKPKPRP, the “shrunken log2 fold change” value was determined as 0.848. RRIRNRPPRLPRPRPRPFTNPRP: the “shrunken log2 fold change” value came out at 0.00408. Consider RRIRCRPPRLPRPRPRPHISPRP, for which the “shrunken log2 fold change” value was -0.535. Regarding RRIRPRPPRLPRPRPRPKLHPRP, the “shrunken log2 fold change” value is -0.00244. In the case of RRIRVRPPRLPRPRPRPVNHPRP, the “shrunken log2 fold change” value is -0.306. As to RRIRQRPPRLPRPRPRPGGEPRP, the “shrunken log2 fold change” value stood at 0.218. For the sequence RRIRCRPPRLPRPRPRPVEDPRP, the “shrunken log2 fold change” value was -0.0221. Next, RRIRNRPPRLPRPRPRPTRGPRP: 0.725.

As to RRIRERPPRLPRPRPRPRWIPRP, the “shrunken log2 fold change” value is 1.93.

Regarding RRIRNRPPRLPRPRPRPNTNPRP, the “shrunken log2 fold change” value was -0.59. Regarding RRIRVRPPRLPRPRPRPIMQPRP, the “shrunken log2 fold change” value was -0.149. In the case of RRIRERPPRLPRPRPRPWFTPRP it was -0.187. Regarding RRIRTRPPRLPRPRPRPLMDPRP, the “shrunken log2 fold change” value was -0.0405. For the sequence RRIRHRPPRLPRPRPRPPSCPRP, the “shrunken log2 fold change” value came to 0.604. With RRIRIRPPRLPRPRPRPWSNPRP, the “shrunken log2 fold change” value is -0.0121. RRIRRRPPRLPRPRPRPAVRPRP: the “shrunken log2 fold change” value came to 0.0847. For the sequence RRIRTRPPRLPRPRPRPMIVPRP, the “shrunken log2 fold change” value was -0.158. In the case of RRIRCRPPRLPRPRPRPVGNPRP it was -0.0972; in that of RRIRSRPPRLPRPRPRPKLAPRP, 0.245; in that of RRIRERPPRLPRPRPRPASGPRP, 0.133. Turning to RRIRCRPPRLPRPRPRPRRQPRP, the “shrunken log2 fold change” value was found to be 0.403. Next, RRIRHRPPRLPRPRPRPSPHPRP: -0.39. For the sequence RRIRGRPPRLPRPRPRPLLTPRP, the “shrunken log2 fold change” value stood at 2.34. Next, RRIRTRPPRLPRPRPRPACFPRP: 0.252. Turning to RRIRWRPPRLPRPRPRPRRQPRP, the “shrunken log2 fold change” value was -0.0653. Regarding RRIRPRPPRLPRPRPRPFELPRP, the “shrunken log2 fold change” value was -0.284.

Regarding RRIRQRPPRLPRPRPRPRIIPRP, the “shrunken log2 fold change” value was 0.00299. In the case of RRIRRRPPRLPRPRPRPEAMPRP it was -0.0491.

Regarding RRIRCRPPRLPRPRPRPRMNPRP, the “shrunken log2 fold change” value is -0.096. Take RRIRQRPPRLPRPRPRPMSRPRP: the “shrunken log2 fold change” value is -0.0221.

Take RRIRKRPPRLPRPRPRPRYAPRP: the “shrunken log2 fold change” value was -0.129. Take RRIRRRPPRLPRPRPRPSQFPRP: the “shrunken log2 fold change” value was 0.0893. In the case of RRIRLRPPRLPRPRPRPYWQPRP, the “shrunken log2 fold change” value stood at 0.0322. Take RRIRPRPPRLPRPRPRPTSLPRP: the “shrunken log2 fold change” value came to 0.044. Take RRIRCRPPRLPRPRPRPWIDPRP: the “shrunken log2 fold change” value is -0.00146. In the case of RRIRDRPPRLPRPRPRPFGEPRP, the “shrunken log2 fold change” value was -0.0214.

RRIRSRPPRLPRPRPRPLSYPRP: the “shrunken log2 fold change” value was -0.464. In the case of RRIRVRPPRLPRPRPRPLLYPRP it was -0.259; in that of RRIRLRPPRLPRPRPRPRVFPRP, -0.0171. Turning to RRIRKRPPRLPRPRPRPRMWPRP, the “shrunken log2 fold change” value amounted to 0.377. For RRIRPRPPRLPRPRPRPQDWPRP, the “shrunken log2 fold change” value amounted to 0.0908. In the case of RRIRGRPPRLPRPRPRPATNPRP it was 0.766.
